Here are results for four molecules from US20240132550A1 (GlaxoSmithKline, published 2024).

For test [1], the target named is T1, factor H, Human (Merck Millipore) (human, UniProt P08603 19-1231).
T1 construct: mature; also called full-length factor H protein; full length fH protein
Kind of test: SPR, full-length human factor H immobilised on CM-5 chip, fHbp analyte at 250 nM.

Test [2] has as its target T2, factor H (hfH) domain 6-7 (human, UniProt P08603 321-443).
T2 construct: domain: factor H 6-7 domain; also called factor H 6-7 domain; factor H domain 6-7
T2 sequence: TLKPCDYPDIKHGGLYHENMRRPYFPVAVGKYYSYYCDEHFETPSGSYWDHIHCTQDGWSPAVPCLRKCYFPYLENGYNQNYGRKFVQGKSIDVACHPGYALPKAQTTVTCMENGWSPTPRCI
Kind of test: SPR, fH 6-7 immobilised on CM-5 chip, fHbp as analyte. For orientation: SPR reads the build-up and loss of mass on a sensor chip optically.

Test [3] addresses T1, factor H, Human (Merck Millipore). Kind of test: SPR, full-length human factor H immobilised on CM-5 chip, fHbp as analyte.

T1 sequence (P08603 19-1231): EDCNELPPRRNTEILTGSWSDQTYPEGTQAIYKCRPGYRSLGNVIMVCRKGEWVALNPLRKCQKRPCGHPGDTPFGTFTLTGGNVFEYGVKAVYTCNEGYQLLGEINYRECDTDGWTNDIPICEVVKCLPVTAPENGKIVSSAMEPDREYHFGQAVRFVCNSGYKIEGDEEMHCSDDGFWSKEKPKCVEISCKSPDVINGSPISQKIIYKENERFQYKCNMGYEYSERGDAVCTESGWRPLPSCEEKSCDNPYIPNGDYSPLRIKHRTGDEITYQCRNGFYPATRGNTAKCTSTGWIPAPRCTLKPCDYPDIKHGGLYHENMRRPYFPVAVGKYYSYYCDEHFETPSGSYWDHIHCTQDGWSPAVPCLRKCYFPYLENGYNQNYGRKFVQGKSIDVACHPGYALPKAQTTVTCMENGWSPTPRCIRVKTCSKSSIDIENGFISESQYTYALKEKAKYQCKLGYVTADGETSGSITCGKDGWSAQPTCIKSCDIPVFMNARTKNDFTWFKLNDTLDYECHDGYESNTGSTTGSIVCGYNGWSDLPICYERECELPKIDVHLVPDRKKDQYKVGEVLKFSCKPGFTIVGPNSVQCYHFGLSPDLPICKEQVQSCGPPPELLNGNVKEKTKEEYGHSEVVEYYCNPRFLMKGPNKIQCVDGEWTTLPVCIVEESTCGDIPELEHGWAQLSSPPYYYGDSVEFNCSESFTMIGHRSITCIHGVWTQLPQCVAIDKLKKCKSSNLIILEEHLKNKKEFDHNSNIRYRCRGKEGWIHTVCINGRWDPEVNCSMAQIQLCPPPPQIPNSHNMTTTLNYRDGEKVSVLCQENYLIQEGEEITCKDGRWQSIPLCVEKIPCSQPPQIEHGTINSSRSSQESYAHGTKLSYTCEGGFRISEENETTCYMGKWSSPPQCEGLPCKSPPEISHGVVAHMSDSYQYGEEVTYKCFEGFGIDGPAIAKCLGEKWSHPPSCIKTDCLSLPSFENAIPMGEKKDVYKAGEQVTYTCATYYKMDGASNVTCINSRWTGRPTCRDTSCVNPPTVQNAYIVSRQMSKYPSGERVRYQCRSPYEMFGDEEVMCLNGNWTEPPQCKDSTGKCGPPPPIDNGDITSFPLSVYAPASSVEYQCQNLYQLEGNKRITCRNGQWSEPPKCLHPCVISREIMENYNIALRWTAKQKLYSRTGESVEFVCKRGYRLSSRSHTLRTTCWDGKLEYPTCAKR

B1: fHbp v1.15 (other)
chain: VAADIGAGLADALTAPLDHKDKGLKSLTLEDSISQNGTLTLSAQGAERTFKAGDKDNSLNTGKLKNDKISRFDFIRQIEVDGQLITLESGEFQVYKQSHSALTALQTEQVQDSEHSGKMVAKRQFRIGDIVGEHTSFGKLPKDVMATYRGTAFGSDDAGGKLTYTIDFAAKQGHGKIEHLKSPELNVDLAAADIKPDEKHHAVISGSVLYNQAEKGSYSLGIFGGQAQEVAGSAEVETANGIRHIGLAAKQLEHHHHHH
With B1, in test [1], the binding result is “binds”.

B2: fHbp v1.15 E214A (other)
chain: VAADIGAGLADALTAPLDHKDKGLKSLTLEDSISQNGTLTLSAQGAERTFKAGDKDNSLNTGKLKNDKISRFDFIRQIEVDGQLITLESGEFQVYKQSHSALTALQTEQVQDSEHSGKMVAKRQFRIGDIVGEHTSFGKLPKDVMATYRGTAFGSDDAGGKLTYTIDFAAKQGHGKIEHLKSPELNVDLAAADIKPDEKHHAVISGSVLYNQAAKGSYSLGIFGGQAQEVAGSAEVETANGIRHIGLAAKQLEHHHHHH
notes: also called v1.15 ΔG (E214A) + His tag
Take B2: in test [1], the binding result is recorded as “binds”.

B3: fHbp v1.15 E214A/S219R (other)
chain: VAADIGAGLADALTAPLDHKDKGLKSLTLEDSISQNGTLTLSAQGAERTFKAGDKDNSLNTGKLKNDKISRFDFIRQIEVDGQLITLESGEFQVYKQSHSALTALQTEQVQDSEHSGKMVAKRQFRIGDIVGEHTSFGKLPKDVMATYRGTAFGSDDAGGKLTYTIDFAAKQGHGKIEHLKSPELNVDLAAADIKPDEKHHAVISGSVLYNQAAKGSYRLGIFGGQAQEVAGSAEVETANGIRHIGLAAKQHHHHHH
notes: also called v1.15 ΔG (E214A/S219R)
For B3, the values for the binding result in test [2] and in test [1] were “no binding (tested: 250 nM)” and “binds”, respectively.

B4: fHbp v1.15 E214A/E235A (other)
chain: VAADIGAGLADALTAPLDHKDKGLKSLTLEDSISQNGTLTLSAQGAERTFKAGDKDNSLNTGKLKNDKISRFDFIRQIEVDGQLITLESGEFQVYKQSHSALTALQTEQVQDSEHSGKMVAKRQFRIGDIVGEHTSFGKLPKDVMATYRGTAFGSDDAGGKLTYTIDFAAKQGHGKIEHLKSPELNVDLAAADIKPDEKHHAVISGSVLYNQAAKGSYSLGIFGGQAQEVAGSAAVETANGIRHIGLAAKQHHHHHH
notes: also called v1.15 ΔG (E214A/E235A)
In the case of B4, the binding result in test [2] and in test [3] was “no binding (tested: 250 nM)” each time.
